Columns and labels:
[1] = target: T1, soluble hetero-EPOR (EPOR-CD131-Fc) (Homo sapiens, UniProt P19235+P32927); assay: Bio-layer interferometry (Octet) binding of hybridoma antibodies to EPOR-CD131-Fc; conditions: hybridoma supernatants; 30 nM soluble receptor
T1 construct: Chimeric Fc fusion proteins of the extracellular domains of human EPOR and human CD131; purchased Sino Biological CT010-H02H
T1 sequence (P19235 25-250 limits assumed): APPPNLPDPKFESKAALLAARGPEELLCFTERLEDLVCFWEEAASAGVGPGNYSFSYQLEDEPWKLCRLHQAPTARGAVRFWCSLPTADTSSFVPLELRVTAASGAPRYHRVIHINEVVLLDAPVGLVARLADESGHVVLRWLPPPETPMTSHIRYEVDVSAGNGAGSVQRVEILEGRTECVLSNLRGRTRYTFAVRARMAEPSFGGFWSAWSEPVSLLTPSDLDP
T1 sequence (P32927 17-443 limits assumed): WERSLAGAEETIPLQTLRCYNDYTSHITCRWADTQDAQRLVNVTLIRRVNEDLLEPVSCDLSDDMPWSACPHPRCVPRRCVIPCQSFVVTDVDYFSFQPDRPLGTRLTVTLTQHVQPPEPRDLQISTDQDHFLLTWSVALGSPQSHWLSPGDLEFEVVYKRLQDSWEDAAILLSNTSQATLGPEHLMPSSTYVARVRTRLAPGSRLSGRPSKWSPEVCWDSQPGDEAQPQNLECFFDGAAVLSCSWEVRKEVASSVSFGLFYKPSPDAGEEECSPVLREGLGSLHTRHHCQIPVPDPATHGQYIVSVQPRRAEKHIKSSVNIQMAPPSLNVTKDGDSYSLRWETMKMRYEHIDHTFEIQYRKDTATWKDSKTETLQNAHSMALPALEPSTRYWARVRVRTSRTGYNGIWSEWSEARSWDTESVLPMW
Excerpt: (§1) The B cells from ATX-GK mice were fused with mouse myeloma cells to generate hybridoma. The hybridoma cells were screened twice. In the first screening, 293 cells expressing human EPOR, human CD131, or both were used as the primary screen. 87 hybridoma antibodies have been isolated by positive staining on 293T cells expressing human EPOR (hEPOR), human CD131 (hCD131), or both, with the hybridoma supernatants (Table 11 and FIG. 17). Expression of EPOR and CD131 was confirmed by flow cytometry with Phycoerythrin (PE)-labeled anti-EPOR (R&D Systems, Cat #FAB307P) and Alexa Fluor® 647 (AF647)-labeled anti-CD131 (BD Biosciences, Cat #564191), respectively (FIG. 28B). All hybridoma clones were purified and sequenced. Binding kinetics with soluble hetero-EPOR (EPOR-CD131-Fc), soluble EPO receptor subunit of hetero-EPOR (EPOR-Fc), and soluble CD131 subunit of hetero-EPOR (CD131-Fc) were measured using bio-layer interferometry (Octet®) by capturing the hybridoma antibodies in the supernatants on biosensors coated with anti-mouse Fc first and dipping the biosensors into the solutions containing 30 nM of the soluble receptor Fc fusion proteins. The supernatants were also used to block the interaction between EPO and EPOR. The soluble EPOR-CD131-Fc was first captured on biosensors coated with anti-human Fc and then dipped into 10 nM of EPO with or without the hybridoma supernatants. […]

EPOR-Fc = target: T2, EPOR-Fc (Homo sapiens, UniProt P19235); assay: Bio-layer interferometry (Octet) binding of hybridoma antibodies to EPOR-Fc; conditions: hybridoma supernatants; 30 nM soluble receptor
T2 construct: The extracellular domains of EPOR or CD131 are produced as soluble Fc fusion proteins; purchased Sino Biological 10707-H02H
T2 sequence (P19235 25-250 limits assumed): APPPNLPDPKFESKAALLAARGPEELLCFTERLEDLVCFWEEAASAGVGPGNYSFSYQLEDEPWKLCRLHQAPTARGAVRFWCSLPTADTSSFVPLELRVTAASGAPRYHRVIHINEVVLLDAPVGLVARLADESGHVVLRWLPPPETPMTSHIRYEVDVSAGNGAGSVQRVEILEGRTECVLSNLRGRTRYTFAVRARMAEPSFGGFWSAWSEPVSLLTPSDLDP
Excerpt: as §1

[2] = target: T3, EPO/EPOR interaction (EPOR-CD131-Fc and EPO) (Homo sapiens, UniProt P19235+P32927); assay: Octet blocking of the EPO/EPOR interaction by hybridoma supernatants; format: binding; conditions: EPO 10 nM
T3 construct: Chimeric Fc fusion proteins of the extracellular domains of human EPOR and human CD131; purchased Sino Biological CT010-H02H
T3 sequence (P19235 25-250 limits assumed): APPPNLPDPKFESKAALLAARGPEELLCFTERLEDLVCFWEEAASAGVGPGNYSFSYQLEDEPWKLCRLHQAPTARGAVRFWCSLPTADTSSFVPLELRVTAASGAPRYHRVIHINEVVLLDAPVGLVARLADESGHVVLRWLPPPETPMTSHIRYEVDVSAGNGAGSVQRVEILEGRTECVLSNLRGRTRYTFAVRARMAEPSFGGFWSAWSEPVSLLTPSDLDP
T3 sequence (P32927 17-443 limits assumed): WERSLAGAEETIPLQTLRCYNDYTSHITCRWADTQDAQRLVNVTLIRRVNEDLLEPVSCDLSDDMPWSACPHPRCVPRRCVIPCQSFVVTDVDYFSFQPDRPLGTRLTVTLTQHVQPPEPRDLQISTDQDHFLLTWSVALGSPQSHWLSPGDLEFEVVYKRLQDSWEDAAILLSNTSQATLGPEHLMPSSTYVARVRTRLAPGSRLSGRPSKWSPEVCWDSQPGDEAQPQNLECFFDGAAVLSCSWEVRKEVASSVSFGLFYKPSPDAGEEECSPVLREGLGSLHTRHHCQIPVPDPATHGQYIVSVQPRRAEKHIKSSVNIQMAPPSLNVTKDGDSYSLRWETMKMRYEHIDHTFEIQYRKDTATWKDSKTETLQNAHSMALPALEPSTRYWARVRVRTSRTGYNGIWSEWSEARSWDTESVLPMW

B1: EPORab - M1: hybridoma antibody clone, VH/VK in Table 10 (antibody, V domains shown)
VH: QVQLQESGPGLVKPSQTLSLTCTVSGGSISSGGYYWSWIRQHPGKGLEWIGNIYYSGNPYYNPSLKSRLIISVDTSKNQFSLRLNSVTAADTAVYYCATFYYGSGSYYNEDYWGQGTLVTVSS
VL: DIQMTQSPSSLSASVGDRVTITCRASQGIRIDLGWYQQKPGKAPKRLIYAASSLKSGVPSRFSGSGSGTEFTLTISSLQPEDFTTYFCLQHNSYPYTFGQGTKLEIK
With B1 as the molecule, how does the “binding to EPOR-CD131-Fc” value [1] read?
Its value is “potent binding”.

And the “binding to EPOR-Fc” value (EPOR-Fc)?
The value was “potent binding”.

What about the “blocking of the EPO/EPOR interaction” value [2] of the same molecule?
The value was “partial blocking”.

— patent publication US12637513B2, “Method of treating cancer by administering an inhibitor of erythropoietin receptor activity comprising either erythropoietin receptor or erythropoietin protein” (ImmunEdge, Inc., priority 2022, dated 2026)
